B1: 16-bp dsRNA (RR) (dsRNA)
RNA 1: CCAUCCUCUACAGGCG
RNA 2: CGCCUGUAGAGGAUGG

Columns and labels:
[1] = target: NS1A(1-73) RNA-binding domain of influenza A virus NS1 protein (Influenza A virus) (UniProt P03495); experiment: EMSA; conditions: CITED Wang 1999; 10-fold higher affinity than for 55-bp dsRNA; cited from earlier work
[2] = target: NS1A(1-73) RNA-binding domain of influenza A virus NS1 protein (Influenza A virus, UniProt P03495 P03495:1-73); experiment: sedimentation equilibrium, 25 C, 1:1 dimer:duplex; summarized as ~1 uM; conditions: tags: pET11a expression in E. coli BL21(DE3), no tag stated; chain copies: 2 (stated, homodimer); label: 5'-32P for gel shift; unlabeled otherwise
Sequence of NS1A(1-73) RNA-binding domain of influenza A virus NS1 protein (P03495 1-73, one chain of several): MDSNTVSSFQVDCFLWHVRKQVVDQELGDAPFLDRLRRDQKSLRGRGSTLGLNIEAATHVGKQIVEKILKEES

Sequence of NS1A(1-73) RNA-binding domain of influenza A virus NS1 protein (Influenza A virus) (P03495 1-73): as the sequence (P03495 1-73, one chain of several) above

Molecule	binding signal [1]	Kd [2]
140-bp dsRNA	10 fold	
B1		0.748 µM

Source: patent US20080234175, “Process for Designing Inhibitors of Influenza Virus Structural Protein 1” (published 2008)
